The results in this text go back to patent US20220378955A1 (ACTINIUM PHARMACEUTICALS, published 2022).

A value given as a limit tells only on which side of the number the result lay.

The target of assay [1] is mouse CD45 (mouse) (UniProt P06800). Description: CD45+ cell-based binding assay of radiolabeled antibody.
Assay [2] has as its target T1, human CD45 (human, UniProt P08575 26-1306).
T1 construct: whole, on cells; BC8 is said to recognize all human isoforms; also called leukocyte common antigen (LCA); T200
T1 sequence (looked up): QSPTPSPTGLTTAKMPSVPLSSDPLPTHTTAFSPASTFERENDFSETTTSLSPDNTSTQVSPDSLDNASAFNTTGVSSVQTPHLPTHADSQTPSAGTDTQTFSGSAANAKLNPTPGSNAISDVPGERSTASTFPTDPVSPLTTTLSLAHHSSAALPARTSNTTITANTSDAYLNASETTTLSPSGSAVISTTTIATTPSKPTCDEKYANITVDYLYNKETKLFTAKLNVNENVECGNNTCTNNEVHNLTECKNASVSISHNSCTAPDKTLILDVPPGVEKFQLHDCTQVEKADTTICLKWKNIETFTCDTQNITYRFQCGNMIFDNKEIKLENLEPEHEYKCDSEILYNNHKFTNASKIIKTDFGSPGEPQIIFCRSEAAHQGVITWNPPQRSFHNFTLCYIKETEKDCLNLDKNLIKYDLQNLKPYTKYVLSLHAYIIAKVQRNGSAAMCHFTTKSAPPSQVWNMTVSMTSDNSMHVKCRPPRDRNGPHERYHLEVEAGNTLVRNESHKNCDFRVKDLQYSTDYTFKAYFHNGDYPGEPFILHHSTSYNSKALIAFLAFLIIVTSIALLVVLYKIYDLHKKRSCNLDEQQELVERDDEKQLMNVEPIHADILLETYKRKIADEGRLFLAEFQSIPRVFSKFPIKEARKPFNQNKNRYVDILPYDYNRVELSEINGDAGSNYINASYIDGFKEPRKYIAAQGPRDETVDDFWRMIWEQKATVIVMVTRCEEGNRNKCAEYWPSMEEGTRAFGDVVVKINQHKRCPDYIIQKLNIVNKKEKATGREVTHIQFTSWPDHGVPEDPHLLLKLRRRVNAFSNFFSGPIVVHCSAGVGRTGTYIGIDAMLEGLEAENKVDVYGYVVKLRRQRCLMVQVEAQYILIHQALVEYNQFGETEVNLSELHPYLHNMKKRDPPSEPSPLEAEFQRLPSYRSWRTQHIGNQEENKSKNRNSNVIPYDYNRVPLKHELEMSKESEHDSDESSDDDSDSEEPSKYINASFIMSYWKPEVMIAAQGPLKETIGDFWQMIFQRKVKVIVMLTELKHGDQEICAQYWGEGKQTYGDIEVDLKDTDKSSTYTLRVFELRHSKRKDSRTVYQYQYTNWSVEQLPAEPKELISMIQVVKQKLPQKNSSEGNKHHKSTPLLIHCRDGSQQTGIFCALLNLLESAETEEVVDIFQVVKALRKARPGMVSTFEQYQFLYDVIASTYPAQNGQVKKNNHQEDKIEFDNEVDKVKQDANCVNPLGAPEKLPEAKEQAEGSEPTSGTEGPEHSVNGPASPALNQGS
The assay can be described thus: flow cytometry on Cytotrol cells, against naïve BC8 as reference. An excerpt: Cytotrol cells (Beckman Coulter) were initially used to determine the binding of naïve BC8 antibody to those cells versus control 18B7 antibody (nonspecific control antibody against the fungal polysaccharide glucuronoxylomannan) by flow cytometry (FIG. 13A). The cells were taken up in RPMI medium, and the secondary antibody was PE labeled rat anti-mouse IgG1 from Biolegend.
Finally, we performed the side by side comparison of the binding of DOTA-BC8 sample to Cytotrol cells by flow cytometry (FIG. 14B), followed by immediate radiolabeling of the same sample with ²²⁵Ac and binding of the radiolabeled sample to Cytotrol cells (FIG. 14A). The binding of the DOTA-BC8 to the cells by flow cytometry (around 60% of the naïve BC8 binding) matched that of radiolabeled ²²⁵Ac-DOTA-BC8 to Cytotrol cells.
For orientation: Flow cytometry measures light scatter and fluorescence of single cells or particles in a stream.

Chain of mouse CD45 (mouse) (P06800 26-1293): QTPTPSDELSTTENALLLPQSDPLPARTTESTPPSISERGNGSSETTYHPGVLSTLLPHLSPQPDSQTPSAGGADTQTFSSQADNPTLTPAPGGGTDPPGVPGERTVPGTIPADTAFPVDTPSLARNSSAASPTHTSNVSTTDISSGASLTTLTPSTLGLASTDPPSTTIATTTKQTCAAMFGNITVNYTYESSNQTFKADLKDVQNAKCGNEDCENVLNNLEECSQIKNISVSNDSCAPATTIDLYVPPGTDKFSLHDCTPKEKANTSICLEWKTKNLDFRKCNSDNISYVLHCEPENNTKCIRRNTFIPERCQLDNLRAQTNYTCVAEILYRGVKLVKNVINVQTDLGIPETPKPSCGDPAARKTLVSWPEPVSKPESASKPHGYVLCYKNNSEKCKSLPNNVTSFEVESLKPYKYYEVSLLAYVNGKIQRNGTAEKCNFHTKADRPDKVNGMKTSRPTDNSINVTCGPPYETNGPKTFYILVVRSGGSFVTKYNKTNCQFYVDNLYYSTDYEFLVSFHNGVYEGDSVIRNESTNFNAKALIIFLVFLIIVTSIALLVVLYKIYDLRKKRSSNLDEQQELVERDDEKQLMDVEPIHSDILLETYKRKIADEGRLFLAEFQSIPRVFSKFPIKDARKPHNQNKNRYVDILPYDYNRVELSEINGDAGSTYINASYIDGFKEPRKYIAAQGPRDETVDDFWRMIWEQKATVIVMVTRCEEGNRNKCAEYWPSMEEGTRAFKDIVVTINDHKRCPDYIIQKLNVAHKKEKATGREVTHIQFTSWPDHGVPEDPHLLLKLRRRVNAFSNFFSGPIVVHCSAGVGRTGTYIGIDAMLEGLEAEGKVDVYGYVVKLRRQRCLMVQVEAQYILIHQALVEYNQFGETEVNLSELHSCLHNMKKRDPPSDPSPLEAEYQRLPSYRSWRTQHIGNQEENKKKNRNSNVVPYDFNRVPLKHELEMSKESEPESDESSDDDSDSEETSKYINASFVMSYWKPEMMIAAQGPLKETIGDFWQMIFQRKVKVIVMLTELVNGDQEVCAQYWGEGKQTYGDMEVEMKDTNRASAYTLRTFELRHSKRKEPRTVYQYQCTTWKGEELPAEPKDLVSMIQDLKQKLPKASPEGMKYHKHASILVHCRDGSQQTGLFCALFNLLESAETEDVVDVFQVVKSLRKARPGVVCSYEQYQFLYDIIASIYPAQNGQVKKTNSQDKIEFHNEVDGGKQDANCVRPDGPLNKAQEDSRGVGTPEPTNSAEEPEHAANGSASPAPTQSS

On to “^131I-labeled anti-mouse pan-CD45 antibody 30F11”, for which, in assay [1], the immunoreactivity is > 95%.

On to “^177Lu-labeled anti-mouse pan-CD45 antibody 30F11”, for which, in assay [1], the immunoreactivity was > 95%.

B1: DOTA-BC8 (BC8 conjugated with p-SCN-Bn-DOTA, batch A) (antibody, V domains shown)
VH: EVKLLESGGGLVQPGGSLKLSCAASGFDFSRYWMSWVRQAPGKGLEWIGEINPTSSTINFTPSLKDKVFISRDNAKNTLYLQMSKVRSEDTALYYCARGNYYRYGDAMDYWGQGTSVTVS
VL: DIALTQSPASLAVSLGQRATISCRASKSVSTSGYSYLHWYQQKPGQPPKLLIYLASNLESGVPARFSGSGSGTDFTLNIHPVEEEDAATYYCQHSRELPFTFGSGTKLEIKR
modifications: p-SCN-Bn-DOTA conjugated, sites not stated; p-SCN-Bn-DOTA conjugated, about 1.5 DOTA per antibody (batch A), sites not stated; Asn-141 partly deamidated to Asp
notes: Chelator conjugate of murine IgG1 BC8; also called unlabeled DOTA-BC8
For B1, in assay [2], the “binding relative to naïve BC8” value was ~60% and the “immunoreactivity relative to naïve BC8” value was ~70%.
